Laboratory results published in article PMC8561398, “The Histidine Ammonia Lyase of Trypanosoma cruzi Is Involved in Acidocalcisome Alkalinization and Is Essential for Survival under Starvation Conditions” (mBio, 2021).

Substrate: N[C@@H](Cc1c[nH]cn1)C(=O)O
Assay: purified protein
Type: biochemical, Trypanosoma cruzi
Conditions: 100 mM Tris-HCl pH 8.8, 0.1 mM MnCl2, 1.7 mM reduced glutathione, 30°C, L-histidine 0.2 to 5 mM, four catalytic sites considered

B1: 6×His-HAL (rHAL; histidine ammonia lyase) (Trypanosoma cruzi strain CL Brener) (protein)
chain: MRVILDGCSLTPDVLYALGYEKGATIEISDEAVARITAARAVIDKIVNDRQTVYGINTGFGKFESTIIPPHQLEELQLNLIRSHSACVGEPLTPERARMMLALRVNVLCKGHSGIRLETVQKYVKAFNAGVVPYIPEQGTVGASGDLGPLSHLALGMLGEGLLATLNNKKFRDAGSVLRELGVEPITLAAKEGLALINGTQFISALGAEAVVRARKIARLADVALAMSHEALRATNSTLNPDIHRVRPHKGQQLVAQRLRALLHSEEYPSMINESHVNCGRVQDAYSIRCAPQVHGISNEVIEWVYGILTTELNCATDNPLVFPDGVKKVVSGGNFHGEYPAKALDMLAIGVHELGNISERRIERLNNPTLSRLPAFLVKNGGLNSGFMIAHCTAAALVSENKVYCHPASADSISTSAAQEDHVSMGGFSARKAIKVVENVERIIAIELLGACQGIDLLRPLRTTEPMEKVWSLVRSVSPPWEEDRVINTDIDNVTKLLRSGAVWKTVKPYVPEEARFLGVLTVKKPFELKSKM
notes: four catalytic sites considered; Q4E133 used for alignment; locus tag from YC6
B1 was tested, and the kcat was 9.027 to 11.7 s⁻¹.
